These results are taken from the supplement of paper PMC10567573.

To fix the notation:
B1: TNNI2 (parent)
chain: DWRKNIEEKSGMEGRKKMFESES
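Also: lentivirally expressed fusions sorted by FACS into six bins by GFP to DsRed ratio, PSI derived from sequencing read proportions per bin multiplied by bin number.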

In the data set the parent is B1. The experiment in a line: protein stability index of a GFP-peptide fusion (GPS, HEK-293T) (PSI 1-6); higher = more stable. As to conditions: c terminus: native.
Regarding DWRKNIEEKSGMEGRKKMFESEP, the protein stability index came to 2.42.
Under DWRKNIEEKSGMEGRKKMFESEG stands 3.42; under DWRKNIEEKSGMEGRKKMFESEH, 2.87; under DWRKNIEEKSGMEGRKKMFESEI, 1.59.
Under DWRKNIEEKSGMEGRKKMFESEC stands 1.53; under DWRKNIEEKSGMEGRKKMFESEF, 3.02.
Turning to DWRKNIEEKSGMEGRKKMFESEK, the protein stability index is 2.63.
DWRKNIEEKSGMEGRKKMFESEY: the protein stability index is 2.59.
In the case of DWRKNIEEKSGMEGRKIMFESES, the protein stability index was 3.32.
As for DWRKNIEEKSGMEGRKTMFESES, the figure is 2.39; as for DWRKNIEEKSGMEGRKEMFESES, 2.36.
Under DWRKNIEEKSGMEGRKDMFESES stands 2.83; under DWRKNIEEKSGMEGRKSMFESES, 2.82; under DWRKNIEEKSGMEGRKAMFESES, 2.25.
Under DWRKNIEEKSGMEGRKHMFESES stands 3.84; under DWRKNIEEKSGMEGRKMMFESES, 2.42.
With DWRKNIEEKSGMEGRKLMFESES, the protein stability index was 2.01.
As for DWRKNIEEKSGMEGRKPMFESES, the figure is 3.08; as for DWRKNIEEKSGMEGRKYMFESES, 2.6; as for DWRKNIEEKSGMEGRKRMFESES, 1.97.
Take DWRKNIEEKSGMEGRKCMFESES: the protein stability index was found to be 2.41.
As for DWRKNIEEKSGMEGRKVMFESES, the figure is 3.07; as for DWRKNIEEKSGMEGRKQMFESES, 2.39.
As for DWRKNIEEKSGMEGRKFMFESES, the figure is 2.48.
Regarding DWRKNIEEKSGMEGRKNMFESES, the protein stability index is 2.56.
Under DWRKNIEEKSGMEGGKKMFESES stands 1.76; under DWRKNIEEKSGMEGPKKMFESES, 2.98; under DWRKNIEEKSGMEGLKKMFESES, 2.56.
Under DWRKNIEEKSGMEGKKKMFESES stands 3.5; under DWRKNIEEKSGMEGDKKMFESES, 2.44.
DWRKNIEEKSGMEGEKKMFESES: the protein stability index turned out to be 2.8.
Under DWRKNIEEKSGMEGQKKMFESES stands 3.12; under DWRKNIEEKSGMEGIKKMFESES, 1.71; under DWRKNIEEKSGMEGNKKMFESES, 2.77.
As for DWRKNIEEKSGMEGFKKMFESES, the figure is 1.62.
As for DWRKNIEEKSGMEGTKKMFESES, the figure is 2.7.
In the case of DWRKNIEEKSGMEGAKKMFESES, the protein stability index came out at 2.59.
On to DWRKNIEEKSGMEGYKKMFESES, for which the protein stability index was 2.15.
Under DWRKNIEEKSGMEGHKKMFESES stands 2.15; under DWRKNIEEKSGMEGMKKMFESES, 1.51; under DWRKNIEEKSGTEGRKKMFESES, 3.47.
Under DWRKNIEEKSGREGRKKMFESES stands 2.74; under DWRKNIEEKSGWEGRKKMFESES, 1.39; under DWRKNIEEKSGSEGRKKMFESES, 2.5.
As for DWRKNIEEKSGQEGRKKMFESES, the figure is 2.02; as for DWRKNIEEKSGVEGRKKMFESES, 2.39; as for DWRKNIEEKSGYEGRKKMFESES, 2.94.
On to DWRKNIEEKSGMETRKKMFESES, for which the protein stability index was 1.41.
Turning to DWRKNIEEKSGMEHRKKMFESES, the protein stability index stood at 1.94.
Turning to DWRKNIEEKSGMEFRKKMFESES, the protein stability index came to 1.93.
As for DWRKNIEEKSGMENRKKMFESES, the figure is 2.22; as for DWRKNIEEKSGMECRKKMFESES, 2.56; as for DWRKNIEEKSGMEKRKKMFESES, 1.31.
As for DWRKNIEEKSGMESRKKMFESES, the figure is 1.63; as for DWRKNIEEKSGMEDRKKMFESES, 1.67; as for DWRKNIEEKSGMEMRKKMFESES, 1.99.
As to DWRKNIEEKSGMERRKKMFESES, the protein stability index worked out at 2.55.
As for DWRKNIEEKSGMEPRKKMFESES, the figure is 2.56; as for DWRKNIEEKSGMEARKKMFESES, 1.43.
As for DWRKNIEEKSGMEVRKKMFESES, the protein stability index is 1.08.
For DWRKNIEEKSGMEIRKKMFESES, the protein stability index turned out to be 1.6.
Under DWRKNIEEKSGMEERKKMFESES stands 1.38; under DWRKNIEEKSGMEWRKKMFESES, 2.78.
Under DWRKNIEEKSGMEGRKKMRESES stands 4.97.
Under DWRKNIEEKSGMEGRKKMWESES stands 1.48.
With DWRKNIEEKSGMEGRKKMTESES, the protein stability index stood at 4.8.
Under DWRKNIEEKSGMEGRKKMCESES stands 4.42; under DWRKNIEEKSGMEGRKKMEESES, 5.03; under DWRKNIEEKSGMEGRKKMHESES, 3.76.
Under DWRKNIEEKSGMEGRKKMMESES stands 2.82; under DWRKNIEEKSGMEGRKKMDESES, 5.43; under DWRKNIEEKSGMEGRKKMKESES, 5.64.
As for DWRKNIEEKSGMEGRKKMIESES, the figure is 4.22; as for DWRKNIEEKSGMEGRKKMNESES, 5.46.
Turning to DWRKNIEEKSGMEGRKKMAESES, the protein stability index stood at 5.06.
On to DWRKNIEEKSGMEGRKKMSESES, for which the protein stability index is 5.6.
Under DWRKNIEEKSGMEGRKKMYESES stands 2.22.
On to DWRKNIEEKSGMEGRKKMPESES, for which the protein stability index was found to be 4.51.
Under DWRKNIEEKSGMEGRKKMQESES stands 4.78.
As for DWRKNIEEKSGMPGRKKMFESES, the figure is 2.34.
Under DWRKNIEEKSGMDGRKKMFESES stands 2.52; under DWRKNIEEKSGMGGRKKMFESES, 3.41.
As to DWRKNIEEKSGMHGRKKMFESES, the protein stability index came out at 2.19.
As to DWRKNIEEKSGMRGRKKMFESES, the protein stability index came to 2.72.
With DWRKNIEEKSGMMGRKKMFESES, the protein stability index stood at 2.03.
As for DWRKNIEEKSGMLGRKKMFESES, the figure is 2.47.
Under DWRKNIEEKSGMNGRKKMFESES stands 2.75; under DWRKNIEEKSGMTGRKKMFESES, 3.7.
For DWRKNIEEKSGMSGRKKMFESES, the protein stability index was 1.77.
For the variant DWRKNIEEKSGMVGRKKMFESES, the protein stability index amounted to 2.33.
Under DWRKNIEEKSGMQGRKKMFESES stands 2.03.
As for DWRKNIEEKSGMKGRKKMFESES, the figure is 2.94.
On to DWRKNIEEKSGMCGRKKMFESES, for which the protein stability index worked out at 2.78.
Take DWRKNIEEKSGMWGRKKMFESES: the protein stability index worked out at 1.81.
For the variant DWRKNIEEKSGMAGRKKMFESES, the protein stability index was found to be 2.01.
Under DWRKNIEEKSGMYGRKKMFESES stands 2.15; under DWRKNIEEKSGMFGRKKMFESES, 1.73.
